One test deals with HLA-B*1401 (human) (UniProt P01889). The test can be described thus: Luminex beads; MAb 1/200; PBS only.
A further test deals with HLA-B*4006 (human) (UniProt P01889). The test can be described thus: Luminex beads; MAb 1/200; PBS only.
Another test addresses HLA-B*4501 (human). The test can be described thus: Luminex beads; MAb 1/200; PBS only.
Test [1] deals with HLA-B*5801 (human). In words: Luminex beads; MAb 1/200; PBS only.
A further test addresses HLA-Cw*0202 (human). The test can be described thus: Luminex beads; MAb 1/200; PBS only.
In the next test the target is HLA-Cw*0501 (human). The test can be described thus: Luminex beads; MAb 1/200; PBS only.
In test [2] the target is HLA-Cw*1701 (human). In words: Luminex beads; MAb 1/200; PBS only.
In test [3] the target is HLA-Cw*1802 (human) (UniProt P10321). The test can be described thus: Luminex beads; MAb 1/200; PBS only.
Another test concerns the target HLA-B*0801 (human) (UniProt P01889). In words: Luminex beads; MAb 1/800; competitor IgG-free serum.
Another test has as its target HLA-B*1402 (human). The description is as above.
For another test, the target named is HLA-B*1801 (human). Described as above.
Another test addresses HLA-B*2708 (human) (UniProt P01889). Described as above.
The next test addresses HLA-B*3701 (human). The test is described as above.
Another test concerns the target HLA-B*4002 (human) (UniProt P01889). Described as above.
The next test concerns the target HLA-B*5101 (human). Described as above.
The target in a further test is HLA-B*5201 (human). The description is as above.
The target of test [4] is HLA-B*5801 (human). The description is as above.
The target of the next test is HLA-Cw*1402 (human) (UniProt P10321). The description is as above.
Test [5] addresses HLA-Cw*1701 (human). The test is described as above.
In test [6] the target is HLA-Cw*1802 (human) (UniProt P10321). Described as above.
In the next test the target is HLA-A*2402 (A24) (human) (UniProt P04439). In words: Luminex single-antigen beads; MEM-E/02 1/600; serum Mi92 1/100.
For a further test, the target named is HLA-A*2403 (A24) (human). The description is as above.
For a further test, the target named is HLA-A*2501 (A25) (human). The test is described as above.
The target of the next test is HLA-A*2601 (A26) (human). The test is described as above.
The target of the next test is HLA-A*3002 (A30) (human) (UniProt P04439). The description is as above.
Another test concerns the target HLA-A*3201 (A32) (human). The description is as above.
Another test has as its target HLA-A*3301 (A33) (human). The description is as above.
Another test concerns the target HLA-B*0801 (B8) (human) (UniProt P01889). The test is described as above.
A further test has as its target HLA-B*1301 (B13) (human). The description is as above.
Another test concerns the target HLA-B*1401 (B64) (human) (UniProt P01889). The description is as above.
The target in the next test is HLA-B*1513 (B77) (human). The description is as above.
Another test deals with HLA-B*1801 (B18) (human). The description is as above.
The target in another test is HLA-B*3901 (B39) (human) (UniProt P01889). Described as above.
Another test has as its target HLA-B*4403 (B44) (human). The description is as above.
The target of a further test is HLA-B*4501 (B45) (human). The test is described as above.
The target in the next test is HLA-B*4801 (B48) (human) (UniProt P01889). The test is described as above.
In the next test the target is HLA-B*5301 (B53) (human). Described as above.
A further test addresses HLA-B*5401 (B54) (human) (UniProt P01889). The description is as above.
Another test deals with HLA-B*6701 (B67) (human) (UniProt P01889). The test is described as above.
For test [7], the target named is HLA-Cw*0401 (Cw4) (human). Described as above.
The target in test [8] is HLA-Cw*1203 (Cw12) (human) (UniProt P10321). The test is described as above.

With “murine monoclonal antibody (MAb) MEM-E/02”, the MFI with HLA-B*1401 (human) came to 5330 MFI; with HLA-B*4006 (human), 7010 MFI; with HLA-B*4501 (human) it was 3670 MFI; with HLA-B*5801 (human) [1], 2830 MFI; with HLA-Cw*0202 (human), 3020 MFI; in the test with HLA-Cw*0501 (human) it was 5830 MFI. The MFI with HLA-Cw*1701 (human) [2] was 2270 MFI; with HLA-Cw*1802 (human) [3], 8830 MFI; in the test with HLA-B*0801 (human) it was 262 MFI; with HLA-B*1402 (human) it was 517 MFI; with HLA-B*1801 (human), 777 MFI; with HLA-B*2708 (human), 417 MFI. Also, the MFI with HLA-B*3701 (human) was 784 MFI; with HLA-B*4002 (human), 655 MFI; with HLA-B*5101 (human) it was 483 MFI; with HLA-B*5201 (human), 609 MFI; with HLA-B*5801 (human) [4], 938 MFI; with HLA-Cw*1402 (human), 803 MFI. The MFI in the test with HLA-Cw*1701 (human) [5] was determined as 676 MFI; in the test with HLA-Cw*1802 (human) [6] it was 3810 MFI.

Take murine monoclonal antibody MAb MEM-E/02: the MFI was < 500 MFI with HLA-A*2402 (A24) (human); < 500 MFI with HLA-A*2403 (A24) (human); 722 MFI with HLA-A*2501 (A25) (human); < 500 MFI with HLA-A*2601 (A26) (human); < 500 MFI in the test with HLA-A*3002 (A30) (human); < 500 MFI with HLA-A*3201 (A32) (human). The MFI was 522 MFI with HLA-A*3301 (A33) (human); 990 MFI with HLA-B*0801 (B8) (human); 978 MFI in the test with HLA-B*1301 (B13) (human); 701 MFI with HLA-B*1401 (B64) (human); < 500 MFI in the test with HLA-B*1513 (B77) (human); < 500 MFI with HLA-B*1801 (B18) (human). Also, the MFI in the test with HLA-B*3901 (B39) (human) is 737 MFI; with HLA-B*4403 (B44) (human) it was 600 MFI; with HLA-B*4501 (B45) (human), < 500 MFI; with HLA-B*4801 (B48) (human), < 500 MFI; in the test with HLA-B*5301 (B53) (human) it was 797 MFI; with HLA-B*5401 (B54) (human), < 500 MFI. For the same substance, the MFI with HLA-B*6701 (B67) (human) is < 500 MFI; in test [7], 826 MFI; in [8] it was 788 MFI. In addition, the % inhibition (in general, the percentage by which the read-out fell short of the control) with HLA-B*1401 (B64) (human) is 7%; with HLA-B*3901 (B39) (human) it was 60%; in test [7], 60%; in test [8] it was 65%.

The values are drawn from US20120171195A1.
